Results from PMC5526873, “Tonoplast-localized nitrate uptake transporters involved in vacuolar nitrate efflux and reallocation in Arabidopsis” (Scientific Reports, 2017).

T1: CHL1 (Arabidopsis thaliana, UniProt Q05085)
T1 construct: gene NPF6.3; cRNA-injected Xenopus laevis oocytes, positive control
T1 sequence (Q05085 1-590): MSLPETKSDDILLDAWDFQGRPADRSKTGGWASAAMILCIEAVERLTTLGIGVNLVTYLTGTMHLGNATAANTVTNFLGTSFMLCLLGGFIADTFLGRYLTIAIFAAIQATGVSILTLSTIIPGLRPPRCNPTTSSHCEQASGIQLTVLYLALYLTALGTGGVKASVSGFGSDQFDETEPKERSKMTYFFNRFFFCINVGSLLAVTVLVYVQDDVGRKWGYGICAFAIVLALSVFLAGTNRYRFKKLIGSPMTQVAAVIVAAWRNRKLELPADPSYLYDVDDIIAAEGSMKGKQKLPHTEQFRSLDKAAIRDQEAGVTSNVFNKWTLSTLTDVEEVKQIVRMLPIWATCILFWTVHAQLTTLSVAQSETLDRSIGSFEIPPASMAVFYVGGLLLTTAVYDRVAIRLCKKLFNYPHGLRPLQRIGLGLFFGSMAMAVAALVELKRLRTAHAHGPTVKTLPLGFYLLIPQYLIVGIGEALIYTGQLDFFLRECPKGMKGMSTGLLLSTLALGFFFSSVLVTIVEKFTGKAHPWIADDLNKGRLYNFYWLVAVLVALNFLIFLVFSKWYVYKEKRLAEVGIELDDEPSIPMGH

B1: NPF5.16 (Arabidopsis thaliana) (protein)
chain: MAIAEEEAALIEDSVSDSVDHRGLPAGKSSTGGWRSAWYIIGVEVGERFAYFGIGSNLITYLTGPLGQSTATAAVNVNTWSGTASILPVLGAFIADAYLGRYRTIVVASLIYILGLGLLTLSSILILMGLSEQRQHNRNASAKPFFWVNILFFCSLYLVAIGQGGHKPCVQAFGADQFDVGDPKERISRGSFFNWWFLSLSAGITLSIIVVVYVQDNVNWALGFGIPCLFMVMALALFLFGRKTYRYPRGDREGKNNAFARIGRVFLVAFKNRKLKLTHSGQLEVGSYKKCKGQLEFLAKALLPGEGGVEPCSSRDVEDAMALVRLIPIWITSVVSTIPYAQYATFFTKQGVTVDRKILPGFEIPPASFQALIGLSIFISVPTYERVFLPLARLITKKPSGITMLQRIGAGMVLSSLNMVVAALVEMKRLETAKEHGLVDRPDATIPMSIWWFVPQYLLLGMIDVFSLVGTQEFFYDQVPTELRSIGLALSLSAMGLASFLSGFLITVINWATGKNGGDSWFNTNLNRAHVDYFYWLLAAFTAIGFLAFLLLSRLYVYRRVDQV
notes: cDNA in oocyte vector pOO2, cRNA-injected Xenopus laevis oocytes; EYFP fusion used for localization
B2: NPF5.12 (Arabidopsis thaliana) (protein)
chain: MSTSIGDNETGAIVSNENVEFSVDFRGNPSIRSSSGAWKSSGFTMCAEVAEKFAYFGIASNLITYFTEALGESTAVAASNVNLWLGTAAFLPLIWGSIADSFLGRFRTILLTSSFYIMGLGLLTFSATIPSLCNDQETRESCVSQVKVIIFFCALYLIALGEGGFKVCLRAFGADQFDEQDPNESKAKSSYFNWLYFAISIGILTTRLVTNYVQENLSWALGYAIPCLSMMLALFLFLLGIKTYRFSTGGEGRQGKKHDNPFVRIGRVFVAAARNRRQTPSDTCLLLPNESTKKFRFLDRAVISCDSYEVEEAKAVLSLIPIWLCSLVFGIVFAQSPTFFTKQGSTMDRSISSTLQVPAATLQCFISLAILVFIPIYDRLFVPIARSITRKPAGITTLQRISTGIFLSIISMVIAALVEMKRLKTARDHGLVDSPKATVPMSVCWLIPQYILFGVSDVFTMVGLQEFFYGEVPPQLRSMGLALYLSIIGIGNFLSSFMVSVIEEATSQSGQVSWFSNNLNQAHLDYFYWLLACLSSLAFIFTVYFAKSYLYNSPK
notes: as for B1
B3: NPF5.11 (Arabidopsis thaliana) (protein)
chain: MAITYSSADELGNTTEGFLEIRENTSGGWKSARLIIVVQMAERFAYFGIASNLIMYLTGPLGESTAAAAANVNAWTGTVAFLPLLGGFLADSYLGRFRTIIISSSLYILGLGLLSFSTMIPSHQSKDSNQLQETIFFFSLYLVAIGQGGYNPCIKVFGADQFDGNDHKEARDKSSFFNWLMFGNCISILTTRLVSTYIQENLSWSLGFGIPSVSMLLSLFLFLLGTTSYRFSTERVGKKNPFARISRVFMEALKNRRQPDLDIANANANETLLLLAHQSSKQFRFLDRAAISCELAEIEEAKAVLRLIPIWITSVVYTIVHAQSPTFFTKQGATMDRSISPGLLVPAATLQSFINLSVVVFIPIYDRLLVPFARSFTQNSSGITTLQRIGTGIFLSILAMVLAALVETKRLQAARDELSIPMSVWWLIPQYVIFGVSDMFTMVGLQEFFYGQVPSELRSVGMALNLSIYGAGNYLSSFMISVIDKITNQYGQRSWFDNDLDQAHLDYFYWLLACLGFIGFAFYLWFAKSYVYSRSNTF
notes: as for B1

Tests used:
CHL1 = biological target: T1, CHL1; assay: […]-nitrate uptake in cRNA-injected Xenopus oocytes, mass spectrometry; type: cell-based; conditions: pH 5.5, 0.25 mM 15N-nitrate, 12 h; positive control; labelled compound (15N)
[1] = substrate: O=[N+]([O-])O; assay: cells, lysate or membranes; type: cell-based, Arabidopsis thaliana; conditions: pH 5.5, 1.5 h, 0.25-30 mM, labelled compound (15N)

Row | Molecule | 15N-nitrate uptake in cRNA-injected Xenopus oocytes, mass spectrometry (CHL1) | Km [1]
1 | O=[N+]([O-])O [nitrate] | CHL1-injected oocytes still showed high uptake activity | 
2 | B1 |  | 2910 µM
3 | B2 |  | 4840 µM
4 | B3 |  | 2570 µM
